Assays:
[1] = substrate: O=C(O)[C@@H]1CCCN1; assay: purified protein, by the assay type; conditions: other: substrate: L-proline, 20 mmol/L 2-oxoglutaric acid, 30° C.
[2] = substrate: O=C(O)[C@@H]1CCCCN1; assay: purified protein, by the assay type; conditions: other: substrate: L-pipecolic acid, 20 mmol/L 2-oxoglutaric acid, 30° C.

B1: Catenulispora acidiphila NBRC102108 L-proline cis-4-hydroxylase CaPH, SEQ ID NO: 6 (Catenulispora acidiphila DSM 44928) (protein)
chain: MRTQYVAALELDEGRLAKDLETSASFNYSEAYSNYLIGGPWKSAMLYSAGGDAGDGLLTDYDYRQSSDFTDYGRQMPYLQELISTSVDLSRLTFVRLARFAKSVIVPHRDFLELEEIPEDKRSAHRLHIPLATHEECFFSEDNVVYRMRAGELWYFDASRIHSVVSFAEEPRIHLIFDFADRPGAGSLVTVPGEPEGAGVPAASAVDRPQLSDAERAALARLADVLTMDTFSEIFSVLVKKHFRRDGGEHFVWDTLTALARACPDPAVLPHTQELRRYFTLERPSGSGQA
Km [1]: 8870 µM | Vmax [1]: 0.02 U/mg-protein

B2: Xenorhabdus doucetiae FRM16 L-proline cis-4-hydroxylase XdPH, SEQ ID NO: 8 (Xenorhabdus doucetiae) (protein)
chain: MMSAKLLASIELNQEQIEHDLNIVGSEILDVAYSEYACGNWGTITLWNHSGDAGDQTSREYVGQARPTELGQQLDCINQLIRNNFNISLIKSVRIFRSYNGGAIYPHIDYLEFNQGFKRVHLVLKSDRSCLNSEENTVYHMLPGEVWFVDGHSAHSAMSLSRVGKYSLVLDFDSGAKFEDLYSESHTLCVDNLEPDIIHDRQPLPTSLRDSLAHIAEHADEFNIQSILFLATRFHFSYAVSIREYFQLLDECFSRNPYKSVRERYEALKDILVRSGYTSHNVNHFNSLSGVTIG
Km [2]: 300 µM | Vmax [2]: 1.14 U/mg-protein | Km [1]: 310 µM

B3: Sinorhizobium meliloti 1021 L-proline cis-4-hydroxylase SmPH, SEQ ID NO: 10 (Sinorhizobium meliloti 1021) (protein)
chain: MSTHFLGKVKFDEARLAEDLSTLEVAEFSSAYSDFACGKWEACVLRNRTGMQEEDIVVSHNAPALATPLSKSLPYLNELVETHFDCSAVRYTRIVRVSENACIIPHSDYLELDETFTRLHLVLDTNSGCANTEEDKIFHMGLGEIWFLDAMLPHSAACFSKTPRLHLMIDFEATAFPESFLRNVEQPVTTRDMVDPRKELTDEVIEGILGFSIIISEANYREIVSILAKLHFFYKADCRSMYDWLKEICKRRGDPALIEKTASLERFFLGHRERGEVMTY
Km [2]: 310 µM | Vmax [2]: 0.03 U/mg-protein | Km [1]: 580 µM

From patent publication US12173330B2, “Method for producing hydroxy-L-pipecolic acid” (API CORPORATION, priority 2015, dated 2024)
